± gives the standard deviation of the averaged measurements.
Test: total protein half-life in vivo (active degradation + dilution); higher = more stable protein
[1] = E. coli NCM3722 delta-hslV, growth: N-lim chemostat, doubling time 6 h
[2] = E. coli NCM3722 delta-lon, growth: N-lim chemostat, doubling time 6 h
[3] = E. coli NCM3722 delta-smpB, growth: N-lim chemostat, doubling time 6 h
[4] = wild type E. coli NCM3722, growth: C-lim chemostat, doubling time 3 h
[5] = wild type E. coli NCM3722, growth: C-lim chemostat, doubling time 6 h
[6] = wild type E. coli NCM3722, growth: C-lim chemostat, doubling time 12 h
[7] = wild type E. coli NCM3722, growth: N-lim chemostat, doubling time 6 h
[8] = wild type E. coli NCM3722, growth: N-lim chemostat, doubling time 12 h
[9] = wild type E. coli NCM3722, growth: P-lim chemostat, doubling time 6 h
[10] = wild type E. coli NCM3722, growth: P-lim chemostat, doubling time 12 h
[11] = E. coli NCM3722 delta-clpP delta-lon delta-hslV, growth: N-lim chemostat, doubling time 6 h
[12] = E. coli NCM3722 delta-clpP, growth: N-lim chemostat, doubling time 6 h

| Sequence | total protein half-life in vivo [1] | total protein half-life in vivo [2] | total protein half-life in vivo [3] | total protein half-life in vivo [4] | total protein half-life in vivo [5] | total protein half-life in vivo [6] | total protein half-life in vivo [7] | total protein half-life in vivo [8] | total protein half-life in vivo [9] | total protein half-life in vivo [10] | total protein half-life in vivo [11] | total protein half-life in vivo [12] |
| --- | --- | --- | --- | --- | --- | --- | --- | --- | --- | --- | --- | --- |
| MRQVLSSLLVIAGLVSGQAIAAPESPPHADIRDSGFVYCVSGQVNTFNPSKASSGLIVDTLAAQFYDRLLDVDPYTYRLMPELAESWEVLDNGATYRFHLRRDVPFQKTDWFTPTRKMNADDVVFTFQRIFDRNNPWHNVNGSNFPYFDSLQFADNVKSVRKLDNHTVEFRLAQPDASFLWHLATHYASVMSAEYARKLEKEDRQEQLDRQPVGTGPYQLSEYRAGQFIRLQRHDDFWRGKPLMPQVVVDLGSGGTGRLSKLLTGECDVLAWPAASQLSILRDDPRLRLTLRPGMNVAYLAFNTAKPPLNNPAVRHALALAINNQRLMQSIYYGTAETAASILPRASWAYDNEAKITEYNPAKSREQLKSLGLENLTLKLWVPTRSQAWNPSPLKTAELIQADMAQVGVKVVIVPVEGRFQEARLMDMSHDLTLSGWATDSNDPDSFFRPLLSCAAIHSQTNLAHWCDPKFDSVLRKALSSQQLAARIEAYDEAQSILAQELPILPLASSLRLQAYRYDIKGLVLSPFGNASFAGVYREKQDEVKKP | 6.48 ± 0.7 h | 6.22 ± 0.64 h | 5.939 ± 0.032 h | 3.129 ± 0.013 h | 5.88 ± 0.23 h | 11.05 ± 0.028 h | 6.39 ± 0.57 h | 13.5 ± 0.91 h | 6.18 ± 0.2 h | 12 ± 1.2 h |  |  |
| MISRVTEALSKVKGSMGSHERHALPGVIGDDLLRFGKLPLCLFICIILTAVTVVTTAHHTRLLTAQREQLVLERDALDIEWRNLILEENALGDHSRVERIATEKLQMQHVDPSQENIVVQK [P0AEN4] | 2.91 h | 4.25 ± 0.28 h | 3.44 ± 0.1 h | 2.6 ± 0.074 h | 3.85 h | 7.71 ± 1.4 h | 4.3 ± 0.56 h | 5.19 ± 0.39 h | 4.04 ± 0.16 h | 5.75 ± 1.9 h | 4.86 ± 0.82 h | 3.72 ± 0.074 h |
| MRHLRNIFNLGIKELRSLLGDKAMLTLIVFSFTVSVYSSATVTPGSLNLAPIAIADMDQSQLSNRIVNSFYRPWFLPPEMITADEMDAGLDAGRYTFAINIPPNFQRDVLAGRQPDIQVNVDATRMSQAFTGNGYIQNIINGEVNSFVARYRDNSEPLVSLETRMRFNPNLDPAWFGGVMAIINNITMLAIVLTGSALIREREHGTVEHLLVMPITPFEIMMAKIWSMGLVVLVVSGLSLVLMVKGVLGVPIEGSIPLFMLGVALSLFATTSIGIFMGTIARSMPQLGLLVILVLLPLQMLSGGSTPRESMPQMVQDIMLTMPTTHFVSLAQAILYRGAGFEIVWPQFLTLMAIGGAFFTIALLRFRKTIGTMA [P0AGH1] | 7.18 ± 0.3 h |  | 6.13 ± 0.76 h | 3.9 h | 7.01 h | 12.2 h | 5.76 ± 0.3 h | 10.5 h | 7.25 ± 0.75 h | 11.7 ± 0.4 h |  |  |
| MLRIADKTFDSHLFTGTGKFASSQLMVEAIRASGSQLVTLAMKRVDLRQHNDAILEPLIAAGVTLLPNTSGAKTAEEAIFAAHLAREALGTNWLKLEIHPDARWLLPDPIETLKAAETLVQQGFVVLPYCGADPVLCKRLEEVGCAAVMPLGAPIGSNQGLETRAMLEIIIQQATVPVVVDAGIGVPSHAAQALEMGADAVLVNTAIAVADDPVNMAKAFRLAVEAGLLARQSGPGSRSYFAHATSPLTGFLEASA | 0.8075 ± 0.0064 h | 1.093 ± 0.0074 h | 0.844 ± 0.015 h | 1.59 ± 0.079 h | 1.61 ± 0.17 h | 1.81 ± 0.88 h | 0.928 ± 0.09 h | 1.067 ± 0.0049 h | 2.01 ± 0.17 h | 3.07 ± 0.59 h | 2.21 ± 0.21 h | 1.09 ± 0.22 h |
| MIKLSNITKVFHQGTRTIQALNNVSLHVPAGQIYGVIGASGAGKSTLIRCVNLLERPTEGSVLVDGQELTTLSESELTKARRQIGMIFQHFNLLSSRTVFGNVALPLELDNTPKDEVKRRVTELLSLVGLGDKHDSYPSNLSGGQKQRVAIARALASNPKVLLCDEATSALDPATTRSILELLKDINRRLGLTILLITHEMDVVKRICDCVAVISNGELIEQDTVSEVFSHPKTPLAQKFIQSTLHLDIPEDYQERLQAEPFTDCVPMLRLEFTGQSVDAPLLSETARRFNVNNNIISAQMDYAGGVKFGIMLTEMHGTQQDTQAAIAWLQEHHVKVEVLGYV | 6.04 ± 0.08 h | 6.66 ± 0.25 h | 5.61 ± 0.26 h |  | 5.76 ± 0.38 h | 9.681 ± 0.078 h | 5.85 ± 0.51 h | 12.67 ± 0.12 h | 6.3 ± 0.86 h | 12.1 ± 0.42 h | 6.5123 ± 0.0016 h | 6.41 ± 0.39 h |
| MSEKYIVTWDMLQIHARKLASRLMPSEQWKGIIAVSRGGLVPGALLARELGIRHVDTVCISSYDHDNQRELKVLKRAEGDGEGFIVIDDLVDTGGTAVAIREMYPKAHFVTIFAKPAGRPLVDDYVVDIPQDTWIEQPWDMGVVFVPPISGR [P0A9M5] | 4.153 ± 0.02 h | 4.37 ± 0.52 h | 4.28 ± 0.093 h | 3 ± 0.046 h | 5.55 ± 0.23 h | 9.92 ± 0.83 h | 4.16 ± 0.19 h | 6.73 ± 0.53 h | 6.07 ± 0.34 h | 13.99 ± 0.054 h | 4.63 ± 0.2 h | 3.87 ± 0.29 h |
| MITIPITLRMLIAKYLCLLKPFWLRKNNKTSVLLIIIILAMILGVVKIQVWLNDWNNDFFNALSQKETDKLWQLVLWFPALLGIFVLISVNKTWLIKLLTIRWREWLTDYYLNRWFADKNYYFTQIYGEHKNTDNPDQRIAEDILLLISKTLSLSFGFIQSLSMLITFTVILWESAGTLSFTVGGTEWNIQGYMVYTVVLIVIGGTLFTHKVGKRIRPLNVEKQRSEATFRTNLVQHNKQAELIALSNAESLQRQELSDNFHTIKENWHRLMNRQRWLDYWQNIYSRSLSVLPYFLLLPQFISGQINLGGLMKSRQAFMLVSNNLSWFIYKYDELAELAAVIDRLYEFHQLTEQRPTNKPKNCQHAVQVADASIRTPDNKIILENLNFHVSPGKWLLLKGYSGAGKTTLLKTLSHCWPWFKGDISSPADSWYVSQTPLIKTGLLKEIICKALPLPVDDKSLSEVLHQVGLGKLAARIHDHDRWGDILSSGEKQRIALARLILRRPKWIFLDETTSHLEEQEAIRLLRLVREKLPTSGVIMVTHQPGVWNLADDICDISAVL |  |  |  | 3.2 ± 0.6 h | 5.29 ± 0.53 h | 11.5 ± 1.1 h |  |  |  |  |  |  |

— the supplement of paper PMC11246515
